Test [1] deals with Nogo-A Δ20 (Rattus norvegicus) (UniProt Q9JK11). The conditions noted are these: cited from earlier work.
For another test, the target named is His-tagged Nogo-A-Δ20. In words: MST; Nanotemper Monolith NT.115, as described in ref. 29; SPARC and Nogo-A-Δ20 (Suppl. Figure 4m).

Sequence of UniProt Q9JK11 (Q9JK11 544-725, stated change not applied): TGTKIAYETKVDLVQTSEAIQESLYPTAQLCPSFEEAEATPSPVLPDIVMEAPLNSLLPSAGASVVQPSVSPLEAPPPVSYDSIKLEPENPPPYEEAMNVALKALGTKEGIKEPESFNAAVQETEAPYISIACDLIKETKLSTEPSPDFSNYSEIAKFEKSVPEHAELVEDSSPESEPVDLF

By Kd is commonly meant a measure of binding affinity in units of concentration. As to S1PR2 (from UniProt O95136), the Kd in test [1] was 280 nM.

B1: SPARC (construct used for microscale thermophoresis not stated) (natural protein)
chain: APQQEALPDETEVVEETVAEVTEVSVGANPVQVEVGEFDDGAEETEEEVVAENPCQNHHCKHGKVCELDENNTPMCVCQDPTSCPAPIGEFEKVCSNDNKTFDSSCHFFATKCTLEGTKKGHKLHLDYIGPCKYIPPCLDSELTEFPLRMRDWLKNVLVTLYERDEDNNLLTEKQKLRVKKIHENEKRLEAGDHPVELLARDFEKNYNMYIFPVHWQFGQLDQHPIDGYLSHTELAPLRAPLIPMEHCTTRFFETCDLDNDKYIALDEWAGCFGIKQKDIDKDLVI
On to B1, for which the dissociation constant Kd with His-tagged Nogo-A-Δ20 came to 150 nM.

The record behind these values is PMC6660512.
